Reference: paper PMC2408619

What was measured:
[1] = target: His-tagged ectodomain of B. bronchiseptica pertactin (Prn-E; residues 38-640) (B. bronchiseptica) (UniProt Q03035); assay: pull-down; varying concentrations of Mtd incubated with 80 μM His-tagged Prn-E (5 min, 25 °C) before adding Ni2+-NTA beads; apparent Kd of Mtd-M1 estimated against Mtd-P6 with the Langmuir isotherm
[2] = target: Biotinylated Prn-E (pertactin residues 38-640 with N-terminal biotinylation sequence) (B. bronchiseptica) (UniProt Q03035); assay: SPR; Biacore 3000, 25 °C; ~100 RU biotinylated Prn-E on a streptavidin chip; Mtd proteins injected in 150 mM NaCl, 50 mM Tris pH 8.0, 0.005% Tween 20 at 30 μl/min; single-site model, global fit, six concentrations, duplicate
[3] = target: Biotinylated Prn-E (pertactin residues 38-640 with N-terminal biotinylation sequence) (B. bronchiseptica) (UniProt Q03035); assay: SPR; conditions: natural protein
[4] = target: His-tagged ectodomain of B. bronchiseptica pertactin (Prn-E; residues 38-640) (B. bronchiseptica) (UniProt Q03035); assay: not stated; unpublished data; stoichiometry of Mtd-P6 with pertactin
[5] = target: Pertactin (Prn-E) ectodomain (Bordetella bronchiseptica) (UniProt Q03035); assay: ITC; conditions: cited from earlier work

Question: What does the source list for “Bordetella bacteriophage major tropism determinant variant Mtd-M1 (from UniProt Q775D6 1-381) (natural protein)”?
Answer: Kd [1]: 500 µM; Kd [2]: > 450 µM

Question: For “Bordetella bacteriophage major tropism determinant variant Mtd-P6 (from UniProt Q775D6 1-381)”, which koff [3] is on record?
Answer: 0.112 s⁻¹

Question: For “Bordetella bacteriophage major tropism determinant variant Mtd-P6 (from UniProt Q775D6 1-381) (natural protein)”, which Kd [2] is on record?
Answer: 5.19 µM

Question: And the kon [2]?
Answer: 10000 M⁻¹ s⁻¹

Question: What about the stoichiometry N (Mtd-P6 protomers per pertactin) [4] of the same substance?
Answer: 3

Question: Which Kd [5] does the source give for Mtd-P1 (from UniProt Q775D6) here?
Answer: 3.04 µM
